# Assay results taken from publication PMC9583166 (Frontiers in Cell and Developmental Biology, 2022).
# Numbering of substitutions follows the chain as printed. Names may count otherwise.
# T1: TC21 ( (the printed accession is a …, UniProt P62070 1-204))
# T1 construct: RRAS2 (TC21), full length gene; Loaded with mant-GppNHp for fluorescence polarisation; also called RRAS2
# T1 sequence (looked up): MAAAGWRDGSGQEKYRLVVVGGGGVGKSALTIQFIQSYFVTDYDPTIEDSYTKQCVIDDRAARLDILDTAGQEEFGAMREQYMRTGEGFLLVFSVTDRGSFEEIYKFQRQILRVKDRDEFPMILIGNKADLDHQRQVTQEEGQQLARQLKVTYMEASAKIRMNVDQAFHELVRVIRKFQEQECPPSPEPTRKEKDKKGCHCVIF
# T2: RRAS ( (the printed accession is a …, UniProt P10301 1-218))
# T2 construct: RRAS (RRAS1), full length gene; Loaded with mant-GppNHp for fluorescence polarisation; also called RRAS1
# T2 sequence (looked up): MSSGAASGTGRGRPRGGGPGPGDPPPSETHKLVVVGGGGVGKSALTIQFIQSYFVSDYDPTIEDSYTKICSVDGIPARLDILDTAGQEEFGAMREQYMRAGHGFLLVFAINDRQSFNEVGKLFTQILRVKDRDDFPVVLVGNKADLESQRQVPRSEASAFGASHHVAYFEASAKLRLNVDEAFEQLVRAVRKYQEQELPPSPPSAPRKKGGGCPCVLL
# T3: RALA ( (the printed accession is a …, UniProt P11233 1-206))
# T3 construct: RALA, full length gene; Loaded with mant-GppNHp for fluorescence polarisation
# T3 sequence (looked up): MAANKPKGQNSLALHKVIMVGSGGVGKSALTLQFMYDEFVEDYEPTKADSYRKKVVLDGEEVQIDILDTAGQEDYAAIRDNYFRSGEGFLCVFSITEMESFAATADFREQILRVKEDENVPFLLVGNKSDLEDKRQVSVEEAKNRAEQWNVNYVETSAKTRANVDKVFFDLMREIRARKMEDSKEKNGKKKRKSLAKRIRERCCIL
# T4: ERAS ( (the printed accession is a …, UniProt Q7Z444 1-233))
# T4 construct: ERAS, full length gene; Loaded with mant-GppNHp for fluorescence polarisation
# T4 sequence (looked up): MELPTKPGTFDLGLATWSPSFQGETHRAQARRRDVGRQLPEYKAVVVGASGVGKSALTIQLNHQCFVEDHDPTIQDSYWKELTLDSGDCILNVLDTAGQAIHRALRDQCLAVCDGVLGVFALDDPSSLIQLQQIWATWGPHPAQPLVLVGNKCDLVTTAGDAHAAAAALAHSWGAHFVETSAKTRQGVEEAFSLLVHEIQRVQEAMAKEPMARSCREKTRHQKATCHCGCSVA
# T5: RAP2A ( (the printed accession is a …, UniProt P10114 1-183))
# T5 construct: RAP2A, full length gene; Loaded with mant-GppNHp for fluorescence polarisation
# T5 sequence (looked up): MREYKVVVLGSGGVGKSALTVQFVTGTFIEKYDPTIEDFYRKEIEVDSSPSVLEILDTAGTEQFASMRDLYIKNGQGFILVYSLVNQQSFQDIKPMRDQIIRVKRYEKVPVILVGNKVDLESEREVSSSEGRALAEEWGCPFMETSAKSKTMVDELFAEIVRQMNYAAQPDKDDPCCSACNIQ
# B1: SIN1-RBD (domain or fragment, UniProt Q9BPZ7 266-373, looked up)
# chain: EKYSSPGLTSKESLFVRINAAHGFSLIQVDNTKVTMKEILLKAVKRRKGSQKVSGPQYRLEKQSEPNVAVDLDSTLESQSAWEFCLVRENSSRADGVFEEDSQIDIAT
# notes: numbers count on isoform 1 (full length); As used in fluorescence polarisation; Limits: 266-373 in the methods, 279-353 in the results; also called SIN1-RBD^WT
# B2: SIN1-RBD^RR311-312EE (domain or fragment, UniProt Q9BPZ7 266-373, looked up)
# chain: B1 chain with R46E, R47E
# notes: numbers count on isoform 1 (full length); also called SIN-RBD^RR311,312EE; SIN1^RR311-312EE
# B3: SIN1-RBD^K307D (domain or fragment, UniProt Q9BPZ7 266-373, looked up)
# chain: B1 chain with K42D
# notes: numbers count on isoform 1 (full length); also called SIN-RBD^K307D; SIN1^K307D
# B4: SIN1-RBD^FSL289-291REE (domain or fragment, UniProt Q9BPZ7 266-373, looked up)
# chain: B1 chain with F24R, S25E, L26E
# notes: numbers count on isoform 1 (full length); also called SIN-RBD^FSL289-291REE; SIN1^FSL289-291REE
# Assays:
# Assay in all cases: fluorescence polarisation; increasing amounts of SIN1 protein titrated to 1 µM mGppNHp-bound GTPase; 21°C; 30 mM Tris/HCl pH 7.5, 150 mM NaCl, 5 mM MgCl2, 3 mM dithiothreitol; quadratic ligand binding equation
# Details in all cases: both partners purified
# RHOA = target: T6, RHOA ( (the printed accession is a …, UniProt P61586 1-193))
# T6 construct: RHOA, full length gene; Loaded with mant-GppNHp for fluorescence polarisation
# T6 sequence (P61586 whole entry): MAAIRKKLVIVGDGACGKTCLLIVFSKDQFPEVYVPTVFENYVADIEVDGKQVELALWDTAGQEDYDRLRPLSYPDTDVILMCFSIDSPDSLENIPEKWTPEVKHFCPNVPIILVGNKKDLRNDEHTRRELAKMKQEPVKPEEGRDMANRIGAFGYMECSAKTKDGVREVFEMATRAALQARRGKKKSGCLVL
# RHEB = target: T7, RHEB ( (the printed accession is a …, UniProt Q15382 1-184))
# T7 construct: RHEB, full length gene; Loaded with mant-GppNHp for fluorescence polarisation
# T7 sequence (Q15382 whole entry): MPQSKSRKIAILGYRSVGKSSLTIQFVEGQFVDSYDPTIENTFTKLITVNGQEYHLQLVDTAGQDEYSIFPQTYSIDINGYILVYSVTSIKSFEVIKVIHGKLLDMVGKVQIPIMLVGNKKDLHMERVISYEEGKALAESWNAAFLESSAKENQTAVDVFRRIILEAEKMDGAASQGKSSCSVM
# KRAS4A [1] = target: T8, KRAS4A ( (the printed accession is a …, UniProt P01116-1 1-189))
# T8 construct: KRAS isoform 4A, full length gene; Loaded with mant-GppNHp for fluorescence polarisation; A farnesylated KRAS4A from insect cells was used only in liposome flotation
# TC21 = target: T1, TC21
# NRAS [2] = target: T9, NRAS ( (the printed accession is a …, UniProt P01111 1-189))
# T9 construct: NRAS, full length gene; Loaded with mant-GppNHp for fluorescence polarisation
# T9 sequence (P01111 whole entry): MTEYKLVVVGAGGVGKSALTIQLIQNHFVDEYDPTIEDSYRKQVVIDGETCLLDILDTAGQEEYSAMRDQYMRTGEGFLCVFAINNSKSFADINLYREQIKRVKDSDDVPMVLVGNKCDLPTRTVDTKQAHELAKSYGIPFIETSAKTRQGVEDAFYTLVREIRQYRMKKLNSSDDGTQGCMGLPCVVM
# KRAS4B = target: T10, KRAS4B ( (the printed accession is a …, UniProt P01116-2 1-188))
# T10 construct: KRAS isoform 4B, full length gene; Loaded with mant-GppNHp for fluorescence polarisation
# RRAS = target: T2, RRAS
# RALA = target: T3, RALA
# ERAS = target: T4, ERAS
# RAP2A = target: T5, RAP2A
# RIT1 [3] = target: T11, RIT1 ( (the printed accession is a …, UniProt Q92963 1-219))
# T11 construct: RIT1, full length gene; Loaded with mant-GppNHp for fluorescence polarisation
# T11 sequence (Q92963 whole entry): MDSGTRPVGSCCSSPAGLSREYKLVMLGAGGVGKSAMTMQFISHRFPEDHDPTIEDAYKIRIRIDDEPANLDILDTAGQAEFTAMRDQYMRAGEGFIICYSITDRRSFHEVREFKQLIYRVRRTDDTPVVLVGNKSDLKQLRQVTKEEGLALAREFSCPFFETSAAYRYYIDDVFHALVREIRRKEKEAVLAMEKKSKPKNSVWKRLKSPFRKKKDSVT
# KRAS4A [4] = target: T8, KRAS4A; remark: listed apart in the source
# RIT1 [5] = target: T11, RIT1; remark: listed apart in the source
# KRAS4A [6] = target: T8, KRAS4A; remark: listed apart in the source
# HRAS = target: T12, HRAS ( (the printed accession is a …, UniProt P01112 1-189))
# T12 construct: HRAS, full length gene; Loaded with mant-GppNHp (or mant-GDP) for fluorescence polarisation; also called HRAS•mGppNHp; HRAS•mGDP
# T12 sequence (P01112 whole entry): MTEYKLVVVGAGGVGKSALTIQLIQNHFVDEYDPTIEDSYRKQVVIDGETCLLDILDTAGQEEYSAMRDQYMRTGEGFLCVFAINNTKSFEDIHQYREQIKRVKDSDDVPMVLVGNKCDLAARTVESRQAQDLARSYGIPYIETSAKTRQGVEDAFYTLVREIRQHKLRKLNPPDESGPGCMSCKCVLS
# NRAS [7] = target: T9, NRAS; remark: listed apart in the source
binder,measurement,setting,value
B1,Kd,RHOA,535 µM
same,Kd,RHEB,358 µM
same,Kd,KRAS4A [1],34 µM
same,Kd,TC21,878 µM
same,Kd,NRAS [2],31 µM
same,Kd,KRAS4B,33 µM
same,Kd,RRAS,123 µM
same,Kd,RALA,331 µM
same,Kd,ERAS,171 µM
same,Kd,RAP2A,483 µM
same,Kd,RIT1 [3],123 µM
same,Kd,KRAS4A [4],35 µM
same,Kd,RIT1 [5],112 µM
B2,Kd,KRAS4A [6],952 µM
same,Kd,HRAS,461 µM
B3,Kd,KRAS4A [6],256 µM
same,Kd,NRAS [7],166 µM
same,Kd,HRAS,324 µM
B4,Kd,KRAS4A [6],654 µM
